Assay results taken from publication PMC2133053 (The Journal of Cell Biology, 1998).

Molecular target: GST–INAD fusion protein (full-length INAD in pGEX5.1) (Drosophila, UniProt Q24008 1-674)
Experiment: pull-down

- fold reduction of binding relative to wild-type PKC: ~8 fold
B1: PKC^D (last three residues changed to aspartic acid), in vitro translated, 35S-labelled (enzyme, Drosophila, UniProt P13677 1-700, looked up)
chain: MAAAAVATPGATVLPPSVPSAAPGAKAPAAGAGKGPGNLLEITGEANIVNYMKNRLRKGAMKRKGLEMVNGHRFGVRFFKNPTYCGHCKDFIWGFGKQGFQCEECRFNIHQKCCKFVVFKCPGKDTDFDADCAKVKHGWISTTYTTPTFCDECGLLLHGVAHQGVKCENCNLNVHHACQETVPPMCGADISEVRGKLLLYVELKGNNLKVDIKEAANLIPMDTNGFSDPYIAVQMHPDRSGRTKKKTKTIQKNLNPVFNETFTFELQPQDRDKRLLIEVWDWDRTSRNDFMGSFSFSLEELQKEPVDGWYKFLSQVEGEHYNIPCVDAFNDIARLRDEVRHDRRPNEKRRMDNKDMPHNMSKRDMIRAADFNFVKVIGKGSFGKVLLAERRGTDELYAVKVLRKDVIIQTDDMELPMNEKKILALSGRPPFLVSMHSCFQTMDRLFFVMEYCKGGDLMYHMQQYGRFKESVAIFYAVEVAIALFFLHERDIIYRDLKLDNILLDGEGHVKLVDFGLSKEGVTERQTTRTFCGTPNYMAPEIVSYDPYSIAADWWSFGVLLFEFMAGQAPFEGDDETTVFRNIKDKKAVFPKHFSVEAMDIITSFLTKKPNNRLGAGRYARQEITTHPFFRNVDWDKAEACEMEPPIKPMIKHRKDISNFDDAFTKEKTDLTPTDKLFMMNLDQNDFIGFSFMNPEFIDDD
modifications: [35S]methionine label
